From the nanobody polyreactivity screen of Harvey et al. (2022) come the findings set out here.

This data set can be described thus: yeast display, Sf9 membrane polyspecificity reagent, FACS + sequencing; frameworks hold sequencing errors. The essentials: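 Nanobodies came from a synthetic yeast display library in Saccharomyces cerevisiae BJ5465, induced with galactose for 36–48 hours and stained for 1 hour at 4 °C with 10% biotinylated, detergent-solubilized Sf9 membrane reagent. Cells were enriched on streptavidin microbeads and then FACS-sorted, with low and high (top ~1%) gates set on anti-HA fluorescence for expression and streptavidin fluorescence for reagent binding. Each polyreactivity label reflects the gate a clone came from. Genes were amplified by colony PCR, sequenced by MiSeq 2 × 250 and filtered by CDR length.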
As to “QVQLVESGRGLVQAGGSLRLSCAASGFTFRRYAMVWYRQAPGKERELVAAITRNGGSTYYADSVKGRFTISRDNAKNTVYFQMNRLKPEDTEVYYCNAVLYTPVYDGFDSWGQGTQVTVSS”, the “polyreactivity (PSR sort gate)” value was “high polyreactivity”. The value for “QVQLVESGGGLVQAGRSLRLICAASGRTFSPNTMGWYRQAPGKEREFVAAINRSGGTTYYADSVKGRFTISRDIAKNTVYLQMNSRKPEDTAVYYCAADSIVPIYRGNDDNYWGQGTQVTVSS” was “low polyreactivity”; that for “QVQLVESGGCLVQAGGTLRLSCAASGRIFVSYVMGWYSQAPGKEREFVAAIRRSGSSTYYADSVKGRFTISRDNEKNTVYLQMNSLKPEDTAVFYCAAYQRSRTLRRYDYWGQGTEVTVSS” was “high polyreactivity”.

On to “QVQLVESGGGLVQAGGSLRLSCAASGSTLGRYAMGWYIQAPGKERELVAAISRGGGSTYYADSVKGRFTISRDNAKNTVYLQMNSLKPEDTAVYYCAARQYIGSPPHRRRFDYWGQGTQVTVSS”, for which the “polyreactivity (PSR sort gate)” value was “high polyreactivity”. Under “QVQLVESGGGLVQAGGSLRLSCAASGSTFGWYAMGWYREAPGKERELVAAISWLGTSTYYADSVKGRFTISRDNAKNTVYLQLNSLKPEDTAVYFCAADAYDVYYAYYYWGQGTQVTVSS” stands “high polyreactivity”; under “QVQLVESGGGIVQAGGSLRLSCAASGSTFPPNAMGWYRQAPGKERELVAGINGSGGRTYYADSVKGRFTISRDNAKNTVYLQMNSLKPVDTAVYYCATRLRSEYYYNKWYYHWGQGTQVTVSS”, “high polyreactivity”. The value for “QVQLVESGGGLVQAGGSLRLSCAASGRTFVYYAMGWYRQAPGKERELVAAITSVGSTYYADSVKGRCTISRDNAKNTVYLQMNSLKPEDTAVYSCAKDTWAYPYYWPYDDYWGHGTQVTVSS” was “low polyreactivity”; that for “QVQLVESGAGLVQAGASLRLSCDASAFIYVTYAMGWYRQAPGKEMELVAAITNSGGTTYYADSVKGRFTISRDNAKNTVYLQMNSLKPEDTAVYYCNKPYGGETAHREFDYWGQGTQVTVSS” was “low polyreactivity”; that for “QVQLEESGGGLLQAGGSHSLSCAASGSTFYKYGMVWYRQAPGKEREFVAAISGSGDSTYYADSVKGRFTISRDNAKNTVYLHMNRLKPEDTAVYYCNAGPWWYLHEYDYWGQGTQVNVSS” was “low polyreactivity”. Under “QVQLVESGGGLVQAGGSLRLSCAASGFSFKSYAMGWYRQAPGKERELVAAISRGTSTKYADSVKGRFTISRDNAKNTVYLQMNSLKPEDTAVYNCAALFPTSDLRLRYYRYDYWGQGTQVTVSS” stands “low polyreactivity”.

With “QVQLVESGGGLVQAGGSLRLSCAASGFIFQYYAMGWYRQAPGKERELVAAINWSGGSTYYADSVKGRFTISRDNAKNSVYLQMNSLKPEDTAVYYCAADEYTSGYEYWGQGTQVTVSS”, the “polyreactivity (PSR sort gate)” value was “high polyreactivity”. With “QVQLVESGGGLVQAGGSLRLSCAASGFTFYRYAMGWYRQAPGKERELVAAISRGGSTNYADSVKGRFTISRDNAKNTVYLQMNSLKPEDTAVYYCNTRYVKGFYWGQGTQVTVSS”, the “polyreactivity (PSR sort gate)” value was “high polyreactivity”. The value for “QVQLVESGGGLVQAGGSLRLSCAPSGFIFWRNAMGWYRQAPGKEREFVAAITSSGGRTYYADSVKGRFTISRDNAKNTVYLQMNSLKPEDTAVYYCAAEIRDYAKSYSFYWGQGTQVTVSS” was “high polyreactivity”.

On to “QVQLVESGGGLVQAGGSLRLSCAASGTIFAKYAMGWYRQAPGKERELVAAISRSSVRTRYADSVKGRFTISRDYAKNTVYLQMNSLKPEDTAVYYCNAYYRSYAYSHLDYWGQGTQVTVSS”, for which the “polyreactivity (PSR sort gate)” value is recorded as “high polyreactivity”. Consider “QVQLVESGGGLVQAGGSLRLSCAASGFTLRYYAMGWSRQAPVKERELVATIKRSGASTYYADSVKGRFTISRDNSKNTVYLQMNSLKPEDTAVYYCNTATSRAYRYDYWGQGTQVTVSS”, for which the “polyreactivity (PSR sort gate)” value was “high polyreactivity”.

Take “QVQLVESGGGLVQAGGSLRLSCAASGRIFGRNAMGWYRQAPGKERELVAAISSSGGRTYYADSVKGRFTISRDNAKNTVYLQMNSLKPEDTAVYYCAAVGSLYYYRYDYWGQGTQVTVSS”: the “polyreactivity (PSR sort gate)” value is recorded as “high polyreactivity”. The value for “QVQLGESGGGLVQAGGSLRLSCAASGRIFASNAMGWYRPAPGKESELVAAIDQSGGSTYYADSVKGRFTISRDNAKNTVYLQMNSLKPEDTAVYYCAARAYLISSSTPFWTGYDSWGQGTQVTVSS” was “low polyreactivity”; that for “QVQLVESGGGLVQAGGSLRLSCAASGRTFFPYAMGWYRQAPGKERELVATIRYRGGSTSYADSVKGRFTISRDNAKNTVYLQMNSLKPEDTAVYYCAARLQRTPRVYSSYFEYDYWGHGTQVTVSS” was “low polyreactivity”; that for “QVQLVESGGGLVQAGGSLRLSCAASGSIFRYYAMGWYRQAPGKERELVAVISSGGTRTNYADSVKGRFTISRDTAKNTVYLQMNSLKPEDTAVYYCAAGYLSLYGGGYWGQGTQVTVSS” was “high polyreactivity”. Under “QVQLVESGGGLVQAGCSLRLSCAASGTIFWYYAMGWYRQAPGKERELVAAISSGGSTYYADSVKGRFTISRDNAKNTVYLQMNSLKPEDTAVYYCNVRLRKKIQNSKYDYWGQGTQVTVSS” stands “high polyreactivity”; under “QVQLVESGGGLVQAGGSLRVTCAASGRIFQRYVMGWYRQAPGKERELVAAITWSGGSTYADSVKGRFTISRDNAKNTVYLQMNSLKTEDTAVYYFAARVPYNYWGMYYLYDYWGQGTQVTVSS”, “high polyreactivity”; under “QVQLVESGGGLVQAGGSLRLSCAASGFIFRFNAMGWYIQAPGKSRELVAAISWSGSSTYYADSVKGRFTISRDNAKNTVYLQMTSLKPEDTAVYYCATSSLYYTIVKGDFYYWGQGTQVTVSS”, “high polyreactivity”.

Regarding “QVQLVESGGGLVQAGGSLRLSCAASGSIFWYYAMGWYRQAPGKERELVAAITGSGVRTYYADSVKGRFTISRDNAKNTVYLQMNSLKPEDTAVYYCNAVSSHSFYFYGDHNYWGQGTQVTVSS”, the “polyreactivity (PSR sort gate)” value is “low polyreactivity”. Under “QVQLVESGGGLVQAGGSLRLSCADSGFIFVVKAMGWYRQAPGKEREIVAVISSSTGSTYYADSVKGRFTISRDNAKNTVYLQLNSLKPEDTAVYSCAAASRRRRPLKRMYYWGQGTQVTVSS” stands “low polyreactivity”. Under “QVQLVESGGGLVQAGGSLRLSCAASGRIFGIYAMGWYRQAPGKERELVAAINSGDSTYADSVKGRFTISRDNAKNTVYLQMNSLKPEDTAVYYCAAEESTSSWSINDYWGQGTQVNVSS” stands “low polyreactivity”; under “QVQLVESGGGLVQAGGSLRLSCAASGSIFPIYAMGWYRQAPGKERELVAAISGSGARTYYADSVKGRFTISRDNAKNTVYLQMNSLKPEDTAVYYCNAKYGYDSEARIVKPVRYDYWGQGTQVTVSS”, “high polyreactivity”; under “QVHLVESGGGLVQAGGSLRLSCAASGSIFITYAMVWYRQAPGKERELVAAIRDSGDRTYYADSVKGRFTISRDNAKNTVYLQMNSLKPEDTAVYYCNARWQEPLKYDYWGQGTKVTVSS”, “low polyreactivity”.

As for “QVQLVESGGGLVQAGGSLRLSCAASGFIFYYNAMGWYRQAPGKERELVAAISSSAGSTYYADSVKGRFTISRDNAKNTVYLQMNSLKPEDTAVYYCDGSRPPNTSNTGYGSWGQGTQVTVSS”, the “polyreactivity (PSR sort gate)” value is given as “low polyreactivity”.

“QVHLVESGGGLVQAGGSLRLSCAASGGLFTSYDMGWYRQEPGKEREFVAGISDSGGSTYYADSVKGRFTISRDNAKNTVYLQMNSLKPEVTAVYYCAVESYRRYYYWGQGTQVTVSS”: the “polyreactivity (PSR sort gate)” value is recorded as “high polyreactivity”. Turning to “QVQLVESGGGLVQAGGSLRLSCAASGSTFGINAMGWSRQAPGKERELVAAISWRGGSTYYADSVKGRFTISRDNSKNTVYLQMNSLKPEDTAVYYCAADTFYWVGHYYVETYDYWGQGTQVTVSS”, the “polyreactivity (PSR sort gate)” value was “high polyreactivity”. On to “QVQLVESGGGLVQAGGSLRLSCAASGSTFYTNAMGWYRQAPGKERELVAAISGSGGSTNYADSVKGRFTISRDNAKNTVYLQMISLKPEDTAVYYGAADGSNYSGSVAAFPYRVDYWGQGTQVNVSS”, for which the “polyreactivity (PSR sort gate)” value is “low polyreactivity”. Under “QVKLVESGGGLVQAGGSLRLSCAASGFTIRSYVMGWYRQAPGKERELVAAIRRSGGSTYYADSVKGRFTISRDNAKNTVYFQMNSLKREDTAVYYCAAYIWWRDYIEFDYWGQGTQVTVSS” stands “high polyreactivity”; under “QVQLVESGGGLVQAGGSLRLSCAASGRIFGTNAMGWYRQAHGKERELVADITSGGSTNYADSVKGRFTISRDNAKNTVYLQMNSLKPEDTAVSYCAADVIGDLPWYRDEYWGQGTQVTVSS”, “low polyreactivity”.

Take “QVQLVESGGGLVQAGGSLRLSCDASGSIFDGYGMGWYRQAPGKERELVASITWNDGSTYYADSVKGRFTISRDNAKNTVYLQMNSLKPEETAVYYCAADQWGYEYDYWGQGTQVTVSS”: the “polyreactivity (PSR sort gate)” value is “low polyreactivity”. Under “QVQLVESGGGLVQAGGSLRLSCAASGITFSSYAMGWYRQAPGTEREFVARISTDADTYYADSVKGRFTISRDNAKHTVLLQMNSLKPEDTAVYYCAAEDYRDFDYWGHGTQVTVSS” stands “low polyreactivity”; under “QVQLVESGGGLVQAGGSLRLSCAASGSTFDIYAMGWYRQAPGKERELVAVISGGDGSTYYADSVKGRFTISRDNAKNTVYLQMNSLKPEDTAVYFCAADYISPGYWDGEYDCWGQGTQVTVSS”, “low polyreactivity”; under “QVQLVESGGGLVQAGGSLRLSCAASGRIFKVYAMGWYRQAPGKERELVAVINGGGSTNYADSVKGRFTISRDNAKNTVYLQMNSLKPEDTAVYYCATEGYGHGGETDGGVYSDLGYWGQGTQVTVSS”, “low polyreactivity”.

As to “PVQLVEAGGGLVQAGGSLRLSCAASGFTIRIYTMGWYRQAPGKERELVAAISSRGGSTYYADSVKGRFTISRDNAKITVYLQMNSLKPEDTAVYYCAKTPYYRYAKQRYTSSHDYWGQGTQVTVSS”, the “polyreactivity (PSR sort gate)” value is reported as “high polyreactivity”. The value for “QVQLVESGGGLVQAGGILRLSCAASGSIFRPYAMGWYRQAPGKERELVAAIRWSTRNTYYADSVKGRFTISRDNAKNTVYLQMNSLKPEDTAVYYCAAAYWPVVWFYYWGQGTQVTVSS” was “low polyreactivity”; that for “QVQLVESGGGLVQAGGRLRLSCASSGIIFRYNAMGWYRQAPGKERELVAAISSSGTTNYADSVKGRFTISRDNAKNTVYLQMNSLKPEDTAVYYCAARRSYARRFKNSMEYWGQGTQVTVSS” was “high polyreactivity”.
